Data on 1 substance can be found in patent JP2003513027A.

Test [1] has as its target Cu-OxLDL (copper-oxidised low density lipoprotein). Nature of the test: cell-based or functional assay.
In test [2] the target is MDA-LDL (malondialdehyde-modified low density lipoprotein). Description: direct binding and competition assays with affinity-purified Fab.
Test [3] concerns the target Cu-OxLDL (copper-oxidised low density lipoprotein). Description: 125I-Cu-OxLDL binding to mouse peritoneal macrophages on ice, IK17 as competitor, % of control without competitor.

“And” between values parts separate entries of the source, which are not always exact repeats. Equal values may be shown once.

For IK17 human monoclonal IgG Fab, the degradation of 125I-Cu-OxLDL by macrophages (TCA-soluble 125I in the medium), % inhibition in test [1] was 50% and 65%. Moreover, in test [2], the Kd was determined as 37 nM. Also, the % inhibition of the binding of 125I-Cu-OxLDL to macrophages in test [3] is 70% and 85%.

What is called Kd is the constant that tells how readily two partners part at equilibrium. High values mean weaker binding, low ones tighter binding.
